Patent publication US6846645B2, “Multiplexed enzymatic assays” (Aclara Biosciences, Inc., priority 2000, dated 2005)

Legend:
[1] = system: Receptor II kinase; test: Screening assay for competitive inhibitors: competition between insulin β chain and EGF, monitored by receptor II kinase activity; format: biochemical
Procedure: Before adding kinase substrate, incubate the mixture for 5 min to activate receptor II kinase by binding to insulin β. The incubation was done at room temperature for 30 min. Either 10 μL of 200 mM EDTA is added or the sample is frozen to stop the reaction before analysis. For the frozen sample, analysis was performed immediately after thawing the samples. Analysis was done on a modified Henry chip with 5 mm effective separation length. The injection was performed by applying 400 V at well #2 for 45 s while grounding other wells. The separation conditions are: 0 V for Well #1, 400 V for well #2 and 4, 700 V for well #3.

[2] = system: Receptor II kinase; test: Receptor II assay: ligand enhancement of receptor II kinase activity; format: biochemical; conditions: saturating (high) ligand concentrations, 25 μM substrate, fixed amount of receptor II
Procedure: Before adding kinase substrate, incubate the mixture for 5 min to activate receptor II kinase by binding to insulin β. The incubation was done at room temperature for 30 min. Either 10 μL of 200 mM EDTA is added or the sample is frozen to stop the reaction before analysis. For the frozen sample, analysis was performed immediately after thawing the samples.
Analysis was done on a modified Henry chip with 5 mm effective separation length. The injection was performed by applying 400 V at well #2 for 45 s while grounding other wells. The separation conditions are: 0 V for Well #1, 400 V for well #2 and 4, 700 V for well #3.
As another example, receptor II (an insulin-related receptor) was studied in connection with insulin-like growth factor (IGF). A significant enhancement (>4 fold) in receptor II kinase activity was observed. Other ligands tested include insulin, insulin α and β chain. Both insulin and insulin β chain stimulated this receptor kinase activity by as much as 20 fold when a high concentration was used (Table 2). […] For this experiment, 25 μM substrate was used with a fixed amount of receptor II and various amounts of ligands to ensure a saturated binding between receptor and ligand.

Substance | extent of competition with activating ligand ([1]; higher insulin β concentration (15 μM), FIG. 14A) | extent of competition with activating ligand ([1]; lower insulin β chain concentration of 3 μM, FIG. 14B) | IC50 ([1]; read-out: IC50 of EGF competing with insulin β chain activation of receptor II kinase, insulin β chain at 3 μM and 15 μM, fixed receptor concentration) | Receptor II Kinase Activity Enhancement (fold) [2] | Receptor II Kinase Activity Enhancement (fold) ([2]; listed as Insulin α chain)
Epidermal growth factor [EGF] | did not show complete competition | near complete competition | 200 to 300 nM | – | –
Insulin α chain | – | – | – | ˜3 fold | about 3 fold
Insulin β chain | – | – | – | >20 fold | –
insulin | – | – | – | >20 fold | –
